This note sets out measurements from the supplement of paper PMC10567573.

The labels stand for the following.
B1: HSP90AB1 (parent)
chain: TLRQKAEADKNDKAVKDLVVLLFE
B2: CIB1 (parent)
chain: DLSRLVNCLTGEGEDTRLSASEMK
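Note: lentivirally expressed fusions sorted by FACS into six bins by GFP to DsRed ratio, PSI derived from sequencing read proportions per bin multiplied by bin number.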

Variants of B1 are the subject of one data set. The data set is described as follows: protein stability index of a GFP-peptide fusion (GPS, HEK-293T) (PSI 1-6); higher = more stable. Particulars: c terminus: a fixed tail appended.
With TLCQKAEADKNDKAVKDLVVLLFE [R3C], the protein stability index was found to be 2.75. Same read-out and setting: then TLDQKAEADKNDKAVKDLVVLLFE [R3D], with 3.57; and TLAQKAEADKNDKAVKDLVVLLFE [R3A], with 3.46. Regarding QLRQKAEADKNDKAVKDLVVLLFE [T1Q], the protein stability index was 3.54. Same read-out and setting: then KLRQKAEADKNDKAVKDLVVLLFE [T1K], with 2.49. On the same count and under the same terms, with GLRQKAEADKNDKAVKDLVVLLFE [T1G] the figure was 3.53; with HLRQKAEADKNDKAVKDLVVLLFE [T1H], 3.09.

Regarding YLRQKAEADKNDKAVKDLVVLLFE [T1Y], the protein stability index was found to be 2.63. The same measure, in the same setting: with ELRQKAEADKNDKAVKDLVVLLFE [T1E] the figure was 3.92. Turning to FLRQKAEADKNDKAVKDLVVLLFE [T1F], the protein stability index is 2.42. Same read-out and setting: with CLRQKAEADKNDKAVKDLVVLLFE [T1C] the figure was 2.26; with DLRQKAEADKNDKAVKDLVVLLFE [T1D], 3.58. Same read-out and setting: then ALRQKAEADKNDKAVKDLVVLLFE [T1A], with 3.35; and NLRQKAEADKNDKAVKDLVVLLFE [T1N], with 2.57. The same measure, in the same setting: with SLRQKAEADKNDKAVKDLVVLLFE [T1S] the figure was 4.38.

As for WLRQKAEADKNDKAVKDLVVLLFE [T1W], the protein stability index worked out at 2.51.

Take PLRQKAEADKNDKAVKDLVVLLFE [T1P]: the protein stability index was 3.57. The same measure, in the same setting: then RLRQKAEADKNDKAVKDLVVLLFE [T1R], with 2.47; and VLRQKAEADKNDKAVKDLVVLLFE [T1V], with 2.52.

For LLRQKAEADKNDKAVKDLVVLLFE [T1L], the protein stability index turned out to be 2.3. The same measure, in the same setting: with MLRQKAEADKNDKAVKDLVVLLFE [T1M] the figure was 3.02. Still for that read-out and setting: with TMRQKAEADKNDKAVKDLVVLLFE [L2M] the figure was 2.95; with TGRQKAEADKNDKAVKDLVVLLFE [L2G], 3.13. As to TKRQKAEADKNDKAVKDLVVLLFE [L2K], the protein stability index is 2.26. The same measure, in the same setting: then TERQKAEADKNDKAVKDLVVLLFE [L2E], with 3.01.

For TNRQKAEADKNDKAVKDLVVLLFE [L2N], the protein stability index came to 2.79. Same read-out and setting: then TPRQKAEADKNDKAVKDLVVLLFE [L2P], with 3.23. On the same count and under the same terms, with TWRQKAEADKNDKAVKDLVVLLFE [L2W] the figure was 2.43; with TCRQKAEADKNDKAVKDLVVLLFE [L2C], 3.12. The same measure, in the same setting: with TFRQKAEADKNDKAVKDLVVLLFE [L2F] the figure was 2.65; with TVRQKAEADKNDKAVKDLVVLLFE [L2V], 3.15; with TIRQKAEADKNDKAVKDLVVLLFE [L2I], 3.16.

Consider TRRQKAEADKNDKAVKDLVVLLFE [L2R], for which the protein stability index worked out at 2.56. TYRQKAEADKNDKAVKDLVVLLFE [L2Y]: the protein stability index turned out to be 2.64. Same read-out and setting: with TDRQKAEADKNDKAVKDLVVLLFE [L2D] the figure was 3.13. Still for that read-out and setting: with TQRQKAEADKNDKAVKDLVVLLFE [L2Q] the figure was 3.62; with TSRQKAEADKNDKAVKDLVVLLFE [L2S], 3.05.

The variants in a further data set derive from B2. Described as above. Particulars: c terminus: a fixed tail appended.
Take DLSRLVNCLTGEGEDFRLSASEMK [T16F]: the protein stability index stood at 2.07.

DLSRLVNCLTGEGEDPRLSASEMK [T16P]: the protein stability index amounted to 4.07.

On to DLSRLVNCLTGEGEDERLSASEMK [T16E], for which the protein stability index came to 3.18. The same measure, in the same setting: then DLSRLVNCLTGEGEDYRLSASEMK [T16Y], with 2.49. The same measure, in the same setting: with DLSRLVNCLTGEGEDQRLSASEMK [T16Q] the figure was 2.9; with DLSRLVNCLTGEGEDDRLSASEMK [T16D], 3.58. The same measure, in the same setting: then DLSRLVNCLTGEGEDLRLSASEMK [T16L], with 3.71; and DLSRLVNCLTGEGEDKRLSASEMK [T16K], with 3.87. With DLSRLVNCLTGEGEDGRLSASEMK [T16G], the protein stability index is 3.35. On the same count and under the same terms, then DLSRLVNCLTGEGEDSRLSASEMK [T16S], with 2.48; and DLSRLVNCLTGEGEDVRLSASEMK [T16V], with 2.8; and DLSRLVNCLTGEGEDARLSASEMK [T16A], with 2.46. Take DLSRLVNCLTGEGEDNRLSASEMK [T16N]: the protein stability index amounted to 3.22. On the same count and under the same terms, then DLSRLVNCLTGEGEDMRLSASEMK [T16M], with 2.62. On the same count and under the same terms, with DLSRLVNCLTGEGEDHRLSASEMK [T16H] the figure was 3.5; with DLSRLVNCLTGEGEDTRLSQSEMK [A20Q], 3.71; with DLSRLVNCLTGEGEDTRLSVSEMK [A20V], 2.17. Same read-out and setting: then DLSRLVNCLTGEGEDTRLSSSEMK [A20S], with 2.9. Turning to DLSRLVNCLTGEGEDTRLSYSEMK [A20Y], the protein stability index worked out at 2.15.

On to DLSRLVNCLTGEGEDTRLSMSEMK [A20M], for which the protein stability index stood at 2.19. Still for that read-out and setting: with DLSRLVNCLTGEGEDTRLSDSEMK [A20D] the figure was 2.92; with DLSRLVNCLTGEGEDTRLSHSEMK [A20H], 2.98.

In the case of DLSRLVNCLTGEGEDTRLSGSEMK [A20G], the protein stability index turned out to be 3.69. In the case of DLSRLVNCLTGEGEDTRLSPSEMK [A20P], the protein stability index came to 3.15. The same measure, in the same setting: then DLSRLVNCLTGEGEDTRLSFSEMK [A20F], with 1.8; and DLSRLVNCLTGEGEDTRLSTSEMK [A20T], with 1.89. For the variant DLSRLVNCLTGEGEDTRLSKSEMK [A20K], the protein stability index came out at 1.61. With DLSRLVNCLTGEGEDTRLSNSEMK [A20N], the protein stability index stood at 2.75. The same measure, in the same setting: then DLSRLVNCLTGEGEDTRLSCSEMK [A20C], with 2.31. On the same count and under the same terms, then DLSRLVNCLTGEGEDTRLSWSEMK [A20W], with 3.38; and DLSRLVNCLTGEGEDTRLSESEMK [A20E], with 4.11; and DLSRLVNCLTGEGEDTRLWASEMK [S19W], with 2.26. Consider DLSRLVNCLTGEGEDTRLQASEMK [S19Q], for which the protein stability index is 2.78. Regarding DLSRLVNCLTGEGEDTRLIASEMK [S19I], the protein stability index was 2.62. Still for that read-out and setting: with DLSRLVNCLTGEGEDTRLYASEMK [S19Y] the figure was 2.29; with DLSRLVNCLTGEGEDTRLDASEMK [S19D], 3.17; with DLSRLVNCLTGEGEDTRLNASEMK [S19N], 4.35. On the same count and under the same terms, then DLSRLVNCLTGEGEDTRLAASEMK [S19A], with 3.2. With DLSRLVNCLTGEGEDTRLHASEMK [S19H], the protein stability index was determined as 3.01.

Consider DLSRLVNCLTGEGEDTRLTASEMK [S19T], for which the protein stability index is 2.01. As to DLSRLVNCLTGEGEDTRLGASEMK [S19G], the protein stability index was determined as 3.56.

Take DLSRLVNCLTGEGEDTRLCASEMK [S19C]: the protein stability index stood at 1.89. Still for that read-out and setting: then DLSRLVNCLTGEGEDTRLPASEMK [S19P], with 3.61; and DLSRLVNCLTGEGEDTRLFASEMK [S19F], with 4.13; and DLSRLVNCLTGEGEDTRLEASEMK [S19E], with 3.61.

As for DLSRLVNCLTGEGEDTRLRASEMK [S19R], the protein stability index amounted to 2.6. As to DLSRLVNCLTGEGEDTRLMASEMK [S19M], the protein stability index came to 2.57.

Turning to DLSRLVNCLTGEGEKTRLSASEMK [D15K], the protein stability index came to 3.1. On the same count and under the same terms, with DLSRLVNCLTGEGEPTRLSASEMK [D15P] the figure was 2.62. Same read-out and setting: with DLSRLVNCLTGEGEHTRLSASEMK [D15H] the figure was 3.49; with DLSRLVNCLTGEGECTRLSASEMK [D15C], 2.19.

In the case of DLSRLVNCLTGEGEVTRLSASEMK [D15V], the protein stability index came to 1.54. As to DLSRLVNCLTGEGEETRLSASEMK [D15E], the protein stability index came to 3.52.

Take DLSRLVNCLTGEGEATRLSASEMK [D15A]: the protein stability index was 3.61.

Consider DLSRLVNCLTGEGERTRLSASEMK [D15R], for which the protein stability index is 2.67. DLSRLVNCLTGEGENTRLSASEMK [D15N]: the protein stability index worked out at 1.77. On the same count and under the same terms, with DLSRLVNCLTGEGEGTRLSASEMK [D15G] the figure was 3.83.
